FireProtDB (doi:10.1006/jmbi.1998.1906)
Values joined by “and” are separate entries in the source; they are usually repeats but may differ in a detail not shown here. Equal values may be shown once.

B1: Lysozyme C, P61626 (parent)
chain: MKALIVLGLVLLSVTVQGKVFERCELARTLKRLGMDGYRGISLANWMCLAKWESGYNTRATNYNAGDRSTDYGIFQINSRYWCNDGKTPGAVNACHLSCSALLQDNIADAVACAKRVVRDPQGIRAWVAWRNRCQNRDVRQYVQGCGV

Variants of: B1
Conditions: Homo sapiens; pH 2.5; Thermal; DSC; glycine 0.05 M; reversible: yes; structure 1LZ1; whole UniProt chain shown

Variant	Tm [°C]	unfolding enthalpy (calorimetric) [kcal/mol]	unfolding enthalpy (van 't Hoff) [kcal/mol]
MKALIVLGLVLLSVTVQGKVFERCELARTLKRLGMDGYRGISLANWMCLAKWESGYNTRATNYNAGDRSTDYGIFQINSRYWCNDGKTPGAVNACHLSCSALLQDNIADAVACAKRVVRDPQGIRAWVAWRNRCQNRDVRQYVQGCGA [V148A]	40.4	61	67.7
MKALIVLGLVLLSVTVQGKVFERCELARTLKRLGMDGYRGISLANWMCLAKWESGYNTRATNYNAGDRSTDYGIFQINSRYWCNDGKTPGAVNACHLSCSALLQDNIADAAACAKRVVRDPQGIRAWVAWRNRCQNRDVRQYVQGCGV [V111A]	41.2	64.1	71.1

Same assay, conditions: Homo sapiens; pH 2.69; Thermal; DSC; glycine 0.05 M; reversible: yes; structure 1LZ1; whole UniProt chain shown

Variant	Tm [°C]	unfolding enthalpy (calorimetric) [kcal/mol]	unfolding enthalpy (van 't Hoff) [kcal/mol]
MKALIVLGLVLLSVTVQGKVFERCELARTLKRLGMDGYRGISLANWMCLAKWESGYNTRATNYNAGDRSTDYGIFQINSRYWCNDGKTPGAVNACHLSCSALLQDNIADAVACAKRVVRDPQGIRAWVAWRNRCQNRDVRQYVQGCGA [V148A]	43.8	69.9	73

Same assay, conditions: Homo sapiens; pH 2.7; 49.2 °C; Thermal; DSC; glycine 0.05 M; reversible: yes; structure 1LZ1; whole UniProt chain shown

Variant	ddG of mutation (higher = less stable) [kcal/mol]	heat capacity change of unfolding [kcal/mol/K]
MKALIVLGLVLLSVTVQGKVFERCELARTLKRLGMDGYRGISLANWMCLAKWESGYNTRATNYNAGDRSTDYGIFQINSRYWCNDGKTPGAVNACHLSCSALLQDNIADAVACAKRVVRDPQGIRAWVAWRNRCQNRDVRQYVQGCGA [V148A]	1.12	1.87
MKALIVLGLVLLSVTVQGKVFERCELARTLKRLGMDGYRGISLANWMCLAKWESGYNTRATNYNAGDRSTDYGIFQINSRYWCNDGKTPGAVNACHLSCSALLQDNIADAAACAKRVVRDPQGIRAWVAWRNRCQNRDVRQYVQGCGV [V111A]	1	1.53
MKALIVLGLVLLSVTVQGKVFERCELARTLKRLGMDGYRGISLANWMCLAKWESGYNTRATNYNAGDRSTDYGIFQINSRYWCNDGKTPGAVNACHLSCSALLQDNVADAVACAKRVVRDPQGIRAWVAWRNRCQNRDVRQYVQGCGV [I107V]	0.35	1.84

Same assay, conditions: Homo sapiens; pH 2.7; Thermal; DSC; glycine 0.05 M; reversible: yes; structure 1LZ1; whole UniProt chain shown

Variant	Tm	change of melting temperature, mutant - wild type (higher = more stable)	heat capacity change of unfolding [kcal/mol/K]	unfolding enthalpy (calorimetric)	unfolding enthalpy (van 't Hoff) [kcal/mol]
MKALIVLGLVLLSVTVQGKVFERCELARTLKRLGMDGYRGISLANWMCLAKWESGYNTRATNYNAGDRSTDYGIFQINSRYWCNDGKTPGAVNACHLSCSALLQDNIADAVACAKRVVRDPQGIRAWVAWRNRCQNRDVRQYVQGCGA [V148A]	44.4 °C	-4.8 °C	1.87	78.2 kcal/mol	–
MKALIVLGLVLLSVTVQGKVFERCELARTLKRLGMDGYRGISLANWMCLAKWESGYNTRATNYNAGDRSTDYGIFQINSRYWCNDGKTPGAVNACHLSCSALLQDNIADAAACAKRVVRDPQGIRAWVAWRNRCQNRDVRQYVQGCGV [V111A]	44.8 °C and 45.2 °C	-4.4 °C and -4 °C	1.53	76.3 kcal/mol and 71.1 kcal/mol	77.3
MKALIVLGLVLLSVTVQGKVFERCELARTLKRLGMDGYRGISLANWMCLAKWESGYNTRATNYNAGDRSTDYGIFQINSRYWCNDGKTPGAVNACHLSCSALLQDNVADAVACAKRVVRDPQGIRAWVAWRNRCQNRDVRQYVQGCGV [I107V]	46.5 °C	-2.7 °C	1.84	78.5 kcal/mol	–

Same assay, conditions: Homo sapiens; pH 2.82; Thermal; DSC; glycine 0.05 M; reversible: yes; structure 1LZ1; whole UniProt chain shown

Variant	Tm [°C]	unfolding enthalpy (calorimetric) [kcal/mol]	unfolding enthalpy (van 't Hoff) [kcal/mol]
MKALIVLGLVLLSVTVQGKVFERCELARTLKRLGMDGYRGISLANWMCLAKWESGYNTRATNYNAGDRSTDYGIFQINSRYWCNDGKTPGAVNACHLSCSALLQDNIADAVACAKRVVRDPQGIRAWVAWRNRCQNRDVRQYVQGCGA [V148A]	47	73	79.2

Same assay, conditions: Homo sapiens; pH 2.97; Thermal; DSC; glycine 0.05 M; reversible: yes; structure 1LZ1; whole UniProt chain shown

Variant	Tm [°C]	unfolding enthalpy (calorimetric) [kcal/mol]	unfolding enthalpy (van 't Hoff) [kcal/mol]
MKALIVLGLVLLSVTVQGKVFERCELARTLKRLGMDGYRGISLANWMCLAKWESGYNTRATNYNAGDRSTDYGIFQINSRYWCNDGKTPGAVNACHLSCSALLQDNIADAVACAKRVVRDPQGIRAWVAWRNRCQNRDVRQYVQGCGA [V148A]	49.9	80.1	86.1

Same assay, conditions: Homo sapiens; pH 3.09; Thermal; DSC; glycine 0.05 M; reversible: yes; structure 1LZ1; whole UniProt chain shown

Variant	Tm [°C]	unfolding enthalpy (calorimetric) [kcal/mol]	unfolding enthalpy (van 't Hoff) [kcal/mol]
MKALIVLGLVLLSVTVQGKVFERCELARTLKRLGMDGYRGISLANWMCLAKWESGYNTRATNYNAGDRSTDYGIFQINSRYWCNDGKTPGAVNACHLSCSALLQDNIADAVACAKRVVRDPQGIRAWVAWRNRCQNRDVRQYVQGCGA [V148A]	52.5	84.2	90.2

Same assay, conditions: Homo sapiens; pH 3.02; Thermal; DSC; glycine 0.05 M; reversible: yes; structure 1LZ1; whole UniProt chain shown

Variant	Tm [°C]	unfolding enthalpy (calorimetric) [kcal/mol]	unfolding enthalpy (van 't Hoff) [kcal/mol]
MKALIVLGLVLLSVTVQGKVFERCELARTLKRLGMDGYRGISLANWMCLAKWESGYNTRATNYNAGDRSTDYGIFQINSRYWCNDGKTPGAVNACHLSCSALLQDNIADAAACAKRVVRDPQGIRAWVAWRNRCQNRDVRQYVQGCGV [V111A]	50.1	77.5	83

Same assay, conditions: Homo sapiens; pH 3.16; Thermal; DSC; glycine 0.05 M; reversible: yes; structure 1LZ1; whole UniProt chain shown

Variant	Tm [°C]	unfolding enthalpy (calorimetric) [kcal/mol]	unfolding enthalpy (van 't Hoff) [kcal/mol]
MKALIVLGLVLLSVTVQGKVFERCELARTLKRLGMDGYRGISLANWMCLAKWESGYNTRATNYNAGDRSTDYGIFQINSRYWCNDGKTPGAVNACHLSCSALLQDNIADAAACAKRVVRDPQGIRAWVAWRNRCQNRDVRQYVQGCGV [V111A]	52.5	81.8	86.4

Same assay, conditions: Homo sapiens; pH 2.49; Thermal; DSC; glycine 0.05 M; reversible: yes; structure 1LZ1; whole UniProt chain shown

Variant	Tm [°C]	unfolding enthalpy (calorimetric) [kcal/mol]	unfolding enthalpy (van 't Hoff) [kcal/mol]
MKALIVLGLVLLSVTVQGKVFERCELARTLKRLGMDGYRGISLANWMCLAKWESGYNTRATNYNAGDRSTDYGIFQINSRYWCNDGKTPGAVNACHLSCSALLQDNVADAVACAKRVVRDPQGIRAWVAWRNRCQNRDVRQYVQGCGV [I107V]	42.5	66	72

Same assay, conditions: Homo sapiens; pH 2.66; Thermal; DSC; glycine 0.05 M; reversible: yes; structure 1LZ1; whole UniProt chain shown

Variant	Tm [°C]	unfolding enthalpy (calorimetric) [kcal/mol]	unfolding enthalpy (van 't Hoff) [kcal/mol]
MKALIVLGLVLLSVTVQGKVFERCELARTLKRLGMDGYRGISLANWMCLAKWESGYNTRATNYNAGDRSTDYGIFQINSRYWCNDGKTPGAVNACHLSCSALLQDNVADAVACAKRVVRDPQGIRAWVAWRNRCQNRDVRQYVQGCGV [I107V]	45.5	71.8	76.6

Same assay, conditions: Homo sapiens; pH 2.78; Thermal; DSC; glycine 0.05 M; reversible: yes; structure 1LZ1; whole UniProt chain shown

Variant	Tm [°C]	unfolding enthalpy (calorimetric) [kcal/mol]	unfolding enthalpy (van 't Hoff) [kcal/mol]
MKALIVLGLVLLSVTVQGKVFERCELARTLKRLGMDGYRGISLANWMCLAKWESGYNTRATNYNAGDRSTDYGIFQINSRYWCNDGKTPGAVNACHLSCSALLQDNVADAVACAKRVVRDPQGIRAWVAWRNRCQNRDVRQYVQGCGV [I107V]	48.4	77.3	82.3

Same assay, conditions: Homo sapiens; pH 3.1; Thermal; DSC; glycine 0.05 M; reversible: yes; structure 1LZ1; whole UniProt chain shown

Variant	Tm [°C]	unfolding enthalpy (calorimetric) [kcal/mol]	unfolding enthalpy (van 't Hoff) [kcal/mol]
MKALIVLGLVLLSVTVQGKVFERCELARTLKRLGMDGYRGISLANWMCLAKWESGYNTRATNYNAGDRSTDYGIFQINSRYWCNDGKTPGAVNACHLSCSALLQDNVADAVACAKRVVRDPQGIRAWVAWRNRCQNRDVRQYVQGCGV [I107V]	53.8	87.3	88.3
